The text below walks through data of article PMC12302554.

Data set [1] concerns BC19 CAR on CAR-T cells (anti-BCMA scFv, humanized anti-CD19 scFv, hinge). The data set is described as follows: flow cytometry. The settings on record: SPR: Biacore 1K, CM5 chip, protein coupled at 20 ug/mL in sodium acetate pH 5.0 (running buffer not given); cell binding: D-PBS, 4.5 g/L glucose, 5 mM MgCl2, 0.
Data set [2] concerns BCMA-CD19-His fusion protein (bispecific BC19 CAR ectodomain: anti-BCMA scFv + humanized anti-CD19 scFv + hinge). Nature of the data set: SPR. The settings on record: multi-cycle kinetics, 1:1 fit, 7.8-125 nM aptamer; SPR: Biacore 1K, CM5 chip, protein coupled at 20 ug/mL in sodium acetate pH 5.0 (running buffer not given); cell binding: D-PBS, 4.5 g/L glucose, 5 mM MgCl2, 0. For orientation: Surface plasmon resonance follows binding to a sensor surface in real time, without labels.

In general, Kd refers to the free concentration of one partner at which half of the binding sites on the other are occupied at equilibrium, for simple one-to-one binding. Turning to “TTCAGCACTCCACGCATAGCACGCTGCCGTGTGCTGCATGTGGTCGTGTGTCCGTGCCTATGCGTGCTACCGTGAA [FAM-Aptamer A3]”, the Kd in data set [1] worked out at 17 nM.
On to “TTCAGCACTCCACGCATAGCACGCTGCCGTGTGCTGCATGTGGTCGTGTGTCCGTGCCTATGCGTGCTACCGTGAA [Aptamer A3]”, for which, in data set [2], the Kd was 37 nM.
